# In patent publication US20130136718A1:
# Where two headings read alike, the source gives them in different places.
# Assays:
# [1] = target: CD20 (human) (UniProt P11836); test: cell-based or functional assay
# [2] = target: CD20 (human) (UniProt P11836); test: cell-based or functional assay; remark: listed apart in the source
# CD20 (human), sequence (P11836 whole entry): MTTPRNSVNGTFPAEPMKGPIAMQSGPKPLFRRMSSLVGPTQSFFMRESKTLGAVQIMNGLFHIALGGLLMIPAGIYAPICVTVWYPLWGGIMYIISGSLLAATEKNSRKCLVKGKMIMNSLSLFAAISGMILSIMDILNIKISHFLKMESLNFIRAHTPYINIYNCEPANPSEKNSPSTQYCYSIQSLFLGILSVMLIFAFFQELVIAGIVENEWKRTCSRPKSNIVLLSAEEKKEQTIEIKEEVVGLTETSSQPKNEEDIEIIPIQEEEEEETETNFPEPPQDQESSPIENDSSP
Substance,"in vitro proliferation of Daudi cells, potency against non-targeting MAb-IFNα constructs [1] [fold]","in vitro proliferation of Jeko-1 cells, low-concentration response, EC50 [1] [nM]","in vitro proliferation of Jeko-1 cells, potency against 734-2b [1] [fold]","in vitro proliferation of Jeko-1 cells, high-concentration response, EC50 [2] [nM]","in vitro proliferation of Jeko-1 cells, EC50 [1] [nM]","in vitro proliferation of Jeko-1 cells, EC50 [2] [nM]"
20-2b (from UniProt P01563 24-188),30,0.00097,25,0.85,,
veltuzumab (antibody),,,,,1,1.5
